Laboratory results reported in patent US20200317768A1 (published 2020).

T1: cynomolgus monkey FcγRIIa2 extracellular domain, C-terminal His-tag (cynomolgus monkey)
T1 construct: also called cyno FcγRIIa2; FcgRIIa2
T1 chain: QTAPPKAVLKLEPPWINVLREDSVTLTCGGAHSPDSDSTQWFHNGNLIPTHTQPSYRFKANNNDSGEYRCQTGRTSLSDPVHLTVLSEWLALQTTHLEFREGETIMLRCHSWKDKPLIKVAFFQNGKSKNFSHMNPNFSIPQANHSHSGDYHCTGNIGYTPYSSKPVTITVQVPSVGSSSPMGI

T2: cynomolgus monkey FcγRIIa1 extracellular domain, C-terminal His-tag (cynomolgus monkey)
T2 construct: also called cyno FcγRIIa1; FcgRIIa1
T2 chain: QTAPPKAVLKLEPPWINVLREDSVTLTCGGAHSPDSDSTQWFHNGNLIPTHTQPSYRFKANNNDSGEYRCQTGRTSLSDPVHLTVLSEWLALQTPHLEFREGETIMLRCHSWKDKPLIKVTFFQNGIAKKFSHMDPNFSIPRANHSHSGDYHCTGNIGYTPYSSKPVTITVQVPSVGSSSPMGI

T3: cynomolgus monkey FcγRIIa3 extracellular domain, C-terminal His-tag (cynomolgus monkey)
T3 construct: also called cyno FcγRIIa3; FcgRIIa3
T3 chain: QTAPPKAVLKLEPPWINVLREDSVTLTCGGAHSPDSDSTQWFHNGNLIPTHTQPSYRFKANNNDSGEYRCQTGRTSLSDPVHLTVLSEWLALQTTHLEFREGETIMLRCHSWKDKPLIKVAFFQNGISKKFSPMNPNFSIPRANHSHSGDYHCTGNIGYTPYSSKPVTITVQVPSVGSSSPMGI

T4: cynomolgus monkey FcγRIIIaS extracellular domain, C-terminal His-tag (cynomolgus monkey, UniProt Q8SPW2 21-206 at identity 1.00))
T4 construct: also called cyno FcγRIIIaS; FcgRIIIaS
T4 chain: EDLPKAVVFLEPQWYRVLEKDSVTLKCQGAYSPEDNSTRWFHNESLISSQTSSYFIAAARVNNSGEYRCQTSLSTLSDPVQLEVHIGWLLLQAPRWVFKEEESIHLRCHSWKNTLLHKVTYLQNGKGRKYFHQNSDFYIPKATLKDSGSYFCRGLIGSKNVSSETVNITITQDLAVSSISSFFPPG

T5: cynomolgus monkey FcγRIIb extracellular domain, C-terminal His-tag (cynomolgus monkey)
T5 construct: also called cyno FcγRIIb; cynoFcγRIIb
T5 chain: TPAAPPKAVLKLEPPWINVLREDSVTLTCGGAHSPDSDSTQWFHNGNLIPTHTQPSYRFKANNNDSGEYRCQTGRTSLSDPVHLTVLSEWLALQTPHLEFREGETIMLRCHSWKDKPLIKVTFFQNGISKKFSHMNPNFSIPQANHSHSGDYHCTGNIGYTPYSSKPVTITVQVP

T6: Human latent myostatin (human, UniProt O14793 25-266; O14793 267-375)
T6 construct: Biotinylated in the ELISAs; also called human myostatin latent form
T6 sequence 1: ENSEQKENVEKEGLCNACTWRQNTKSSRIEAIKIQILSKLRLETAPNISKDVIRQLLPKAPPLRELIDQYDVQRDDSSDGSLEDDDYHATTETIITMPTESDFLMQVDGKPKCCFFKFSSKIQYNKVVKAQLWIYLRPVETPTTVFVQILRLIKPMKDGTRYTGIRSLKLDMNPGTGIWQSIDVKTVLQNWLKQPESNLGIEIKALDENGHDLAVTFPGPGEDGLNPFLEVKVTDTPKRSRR
T6 sequence 2: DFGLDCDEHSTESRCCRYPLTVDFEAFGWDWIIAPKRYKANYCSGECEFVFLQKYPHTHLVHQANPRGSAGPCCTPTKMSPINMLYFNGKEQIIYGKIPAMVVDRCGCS


What was measured:
[1] = target: T1, cynomolgus monkey FcγRIIa2 …; assay: SPR; FcgR bound per captured antibody, normalized to SG1
Description: (§1) The kinetic analysis of interactions between these antibodies and FcγR was carried out using BIACORE® T200 or BIACORE® 4000 (GE Healthcare). HBS-EP+ (GE Healthcare) was used as the running buffer, and the measurement temperature was set to 25° C. A chip produced by immobilizing Protein A. Protein A/G or mouse anti-human IgG kappa light chain (BD Biosciences) onto a Series S Sensor Chip CM4 or CM5 (GE Healthcare) by the amine-coupling method was used. […] After the measurement, the antibody captured on the chip was washed off by allowing reaction with 10 mM glycine-HCl, pH1.5 and 25 mM NaOH so that the chip was regenerated and used repeatedly. The sensorgrams obtained as measurement results were analyzed by the 1:1 Langmuir binding model using the BIACORE® Evaluation Software to calculate the binding rate constant ka (L/mol/s) and dissociation rate constant kd (l/s), and the dissociation constant KD (mol/L) was calculated from these values. […] Regarding such interactions, KD values were calculated using the following 1:1 binding model described in BIACORE® T100 Software Handbook BR1006-48 Edition AE.
(§2) The value of the amount of FcγR binding was obtained by dividing the amount of FcγR bound by the amount of each antibody captured.

[2] = target: T2, cynomolgus monkey FcγRIIa1 …; assay: as above
Description: as §1, §2

[3] = target: T3, cynomolgus monkey FcγRIIa3 …; assay: as above
Description: as §1, §2

[4] = target: T4, cynomolgus monkey FcγRIIIaS …; assay: as above
Description: as §1, §2

[5] = target: T5, cynomolgus monkey FcγRIIb extracellular …; assay: as above
Description: as §1, §2

[6] = target: T6, Human latent myostatin; assay: SPR (BIACORE T200), 37 C, pH7.4, avidity condition (capture 185 RU), 1:1 fit; pH 7.4
Description: The kinetic parameters of anti-latent myostatin antibodies against human, cynomolgus monkey (cyno), and mouse latent myostatin were assessed at 37° C. at pH7.4 using a BIACORE® T200 instrument (GE Healthcare). ProA/G (Pierce) was immobilized onto all flow cells of a CM4 chip using amine coupling kit (GE Healthcare). Anti-latent myostatin antibody and analytes were prepared in ACES pH7.4 (20 mM ACES, 150 mM NaCl, 1.2 mM CaCl₂), 0.05% TWEEN® 20, 0.005% NaN₃). […] Then human, cyno, or mouse latent myostatin was injected at 3.125 to 50 nM prepared by two-fold serial dilution, followed by dissociation. The sensor surface was regenerated with 25 mM NaOH. Kinetic parameters were determined by processing and fitting the data to a 1:1 binding model using BIACORE® T200 Evaluation software, version 2.0 (GE Healthcare).
All experimental settings were the same as in Example 7, except that measurements were also performed in ACES pH5.8 buffer in addition to ACES pH7.4 condition. Some antibodies were only measured against human latent myostatin. Antibody capture level was aimed at 185 RU and 18.5 RU, for avidity and affinity assay, respectively. Kinetic parameters were determined using 1:1 Binding fitting using BIACORE® T200 Evaluation software, version 2.0 (GE Healthcare).

amount of FcgR binding (SG1 = 100) [1] [SG1 = 100] | amount of FcgR binding (SG1 = 100) [2] [SG1 = 100] | amount of FcgR binding (SG1 = 100) [3] [SG1 = 100] | amount of FcgR binding (SG1 = 100) [4] [SG1 = 100] | amount of FcgR binding (SG1 = 100) [5] [SG1 = 100] | Kd [6] [nM] | koff [6] [s⁻¹] | kon [6] [M⁻¹ s⁻¹] | Binder
86 | 83 | 62 | 15 | 85 |  |  |  | M103205H795-MY001/M103202L889-SK1 (antibody, human IgG1, kappa, also called G236N) heavy: not shown light: DIVMTQSPATLSLSPGERATLSCTSSQSVYHANWLSWFQQKPGQPPKLLIYWASTLAYGVPSRFSGSGSGTDFTLTISSLQPEDAATYYCAGGYGGGRYAFGQGTKVEIKRTVAAPSVFIFPPSDEQLKSGTASVVCLLNNFYPREAKVQWKVDNALQSGNSQESVTEQDSKDSTYSLSSTLTLSKADYEKHKVYACEVTHQGLSSPVTKSFNRGEC
15 | 16 | 21 | 12 | 18 |  |  |  | M103205H795-SG170/M103202L889-SK1 (antibody, human IgG1, kappa, also called P238Q) heavy: not shown light: DIVMTQSPATLSLSPGERATLSCTSSQSVYHANWLSWFQQKPGQPPKLLIYWASTLAYGVPSRFSGSGSGTDFTLTISSLQPEDAATYYCAGGYGGGRYAFGQGTKVEIKRTVAAPSVFIFPPSDEQLKSGTASVVCLLNNFYPREAKVQWKVDNALQSGNSQESVTEQDSKDSTYSLSSTLTLSKADYEKHKVYACEVTHQGLSSPVTKSFNRGEC
14 | 13 | 21 | 24 | 12 |  |  |  | M103205H795-SG173/M103202L889-SK1 (antibody, human IgG1, kappa, also called S267L) heavy: not shown light: DIVMTQSPATLSLSPGERATLSCTSSQSVYHANWLSWFQQKPGQPPKLLIYWASTLAYGVPSRFSGSGSGTDFTLTISSLQPEDAATYYCAGGYGGGRYAFGQGTKVEIKRTVAAPSVFIFPPSDEQLKSGTASVVCLLNNFYPREAKVQWKVDNALQSGNSQESVTEQDSKDSTYSLSSTLTLSKADYEKHKVYACEVTHQGLSSPVTKSFNRGEC
16 | 17 | 32 | 22 | 22 |  |  |  | M103205H795-SG169/M103202L889-SK1 (antibody, human IgG1, kappa, also called P238M) heavy: not shown light: DIVMTQSPATLSLSPGERATLSCTSSQSVYHANWLSWFQQKPGQPPKLLIYWASTLAYGVPSRFSGSGSGTDFTLTISSLQPEDAATYYCAGGYGGGRYAFGQGTKVEIKRTVAAPSVFIFPPSDEQLKSGTASVVCLLNNFYPREAKVQWKVDNALQSGNSQESVTEQDSKDSTYSLSSTLTLSKADYEKHKVYACEVTHQGLSSPVTKSFNRGEC
17 | 14 | 27 | 31 | 16 |  |  |  | M103205H795-SG172/M103202L889-SK1 (antibody, human IgG1, kappa, also called V266F) heavy: not shown light: DIVMTQSPATLSLSPGERATLSCTSSQSVYHANWLSWFQQKPGQPPKLLIYWASTLAYGVPSRFSGSGSGTDFTLTISSLQPEDAATYYCAGGYGGGRYAFGQGTKVEIKRTVAAPSVFIFPPSDEQLKSGTASVVCLLNNFYPREAKVQWKVDNALQSGNSQESVTEQDSKDSTYSLSSTLTLSKADYEKHKVYACEVTHQGLSSPVTKSFNRGEC
14 | 18 | 38 | 14 | 22 |  |  |  | M103205H795-SG167/M103202L889-SK1 (antibody, human IgG1, kappa, also called P238Y) heavy: not shown light: DIVMTQSPATLSLSPGERATLSCTSSQSVYHANWLSWFQQKPGQPPKLLIYWASTLAYGVPSRFSGSGSGTDFTLTISSLQPEDAATYYCAGGYGGGRYAFGQGTKVEIKRTVAAPSVFIFPPSDEQLKSGTASVVCLLNNFYPREAKVQWKVDNALQSGNSQESVTEQDSKDSTYSLSSTLTLSKADYEKHKVYACEVTHQGLSSPVTKSFNRGEC
10 | 10 | 17 | 5 |  |  |  |  | M103205H795-SG166/M103202L889-SK1 (antibody, human IgG1, kappa, also called G237D) heavy: not shown light: DIVMTQSPATLSLSPGERATLSCTSSQSVYHANWLSWFQQKPGQPPKLLIYWASTLAYGVPSRFSGSGSGTDFTLTISSLQPEDAATYYCAGGYGGGRYAFGQGTKVEIKRTVAAPSVFIFPPSDEQLKSGTASVVCLLNNFYPREAKVQWKVDNALQSGNSQESVTEQDSKDSTYSLSSTLTLSKADYEKHKVYACEVTHQGLSSPVTKSFNRGEC
16 | 21 | 30 | 13 | 28 |  |  |  | M103205H795-SG168/M103202L889-SK1 (antibody, human IgG1, kappa, also called P238E) heavy: not shown light: DIVMTQSPATLSLSPGERATLSCTSSQSVYHANWLSWFQQKPGQPPKLLIYWASTLAYGVPSRFSGSGSGTDFTLTISSLQPEDAATYYCAGGYGGGRYAFGQGTKVEIKRTVAAPSVFIFPPSDEQLKSGTASVVCLLNNFYPREAKVQWKVDNALQSGNSQESVTEQDSKDSTYSLSSTLTLSKADYEKHKVYACEVTHQGLSSPVTKSFNRGEC
 |  |  |  |  | 0.163 | 0.000217 | 1.33e+06 | MS_M103205H707-SG1/M103202L802-SK1 (antibody, human IgG1, kappa, V domains shown, also called MS1032LO04-SG1; MSLO-04) VH: QVTLKESGPVLVKPTETLTLTCTVSGIDLSHYDISWVRQAPGKGLEWVGIISYAGSTYYASWAKGRLTISKDTSKNQVVLTMTNMDPVDTATYYCARGVPAYSHGGDLWGQGTLVTVSS VL: DIVMTQSPATLSLSPGERATLSCTSSQSVYHDNWLSWFQQKPGQPPKLLIYWASTLAYGVPSRFSGSGSGTDFTLTISSLQPEDAATYYCAGGYGGGLYAFGQGTKVEIKR
